Laboratory results: publication PMC6058054, “Mining the Genome of Streptomyces leeuwenhoekii: Two New Type I Baeyer–Villiger Monooxygenases From Atacama Desert” (Frontiers in Microbiology, 2018)

How the values were obtained:
Sle_62070 = target: T1, Sle_62070 (Streptomyces leeuwenhoekii, UniProt A0A0F7W6X7); test: UV-vis spectrum of purified flavoprotein; FAD quantified after SDS unfolding; format: binding; conditions: co-purified FAD
T1 construct: full-length, fused to N-terminal His-tagged phosphite dehydrogenase (PTDH) in pCRE2, fusion kept; expressed in E. coli NEB 10-beta; FAD flavoprotein

Sle_13190 = target: T2, Sle_13190 (Streptomyces leeuwenhoekii, UniProt A0A0F7VUW7); test: as above; format: binding; conditions: co-purified FAD
T2 construct: full-length, fused to N-terminal His-tagged phosphite dehydrogenase (PTDH) in pCRE2, fusion kept; expressed in E. coli NEB 10-beta; FAD flavoprotein

purified protein [1] = substrate: O=C1CC2C=CCC12; test: purified protein; format: biochemical, Streptomyces leeuwenhoekii; conditions: 150 uM NADPH, 10 uM FAD, 50 mM Tris-HCl pH 8.0, 10% glycerol, 100 mM NaCl, 2.5% 1,4-dioxane, 25 C
purified protein [2] = substrate: O=C1CCC(c2ccccc2)CC1; test: purified protein; format: biochemical, Streptomyces leeuwenhoekii; conditions: 150 uM NADPH, 10 uM FAD, 50 mM Tris-HCl pH 8.0, 10% glycerol, 100 mM NaCl, 2.5% 1,4-dioxane, 25 C
purified protein [3] = substrate: O=C1CCCCC1c1ccccc1; test: purified protein; format: biochemical, Streptomyces leeuwenhoekii; conditions: 150 uM NADPH, 10 uM FAD, 50 mM Tris-HCl pH 8.0, 10% glycerol, 100 mM NaCl, 2.5% 1,4-dioxane, 25 C
purified protein [4] = substrate: CC(=O)Cc1ccccc1; test: purified protein; conditions: 150 uM NADPH, 10 uM FAD, 50 mM Tris-HCl pH 8.0, 10% glycerol, 100 mM NaCl, 2.5% 1,4-dioxane, 25 C

Row | Molecule | UV-vis spectrum of purified flavoprotein; FAD quantified after SDS unfolding (Sle_62070) | UV-vis spectrum of purified flavoprotein; FAD quantified after SDS unfolding (Sle_13190) | Km (purified protein [1]) [µM] | kcat (purified protein [1]) [s⁻¹] | kcat/Km (purified protein [1]) [M⁻¹ s⁻¹] | kcat (purified protein [2]) [s⁻¹] | kcat/Km (purified protein [2]) [M⁻¹ s⁻¹] | kcat (purified protein [3]) [s⁻¹] | kcat/Km (purified protein [3]) [M⁻¹ s⁻¹] | Km (purified protein [4]) [µM] | kcat (purified protein [4]) [s⁻¹] | kcat/Km (purified protein [4]) [M⁻¹ s⁻¹]
1 | Cc1cc2nc3c(=O)[nH]c(=O)nc-3n(C[C@H](O)[C@H](O)[C@H](O)COP(=O)(O)OP(=O)(O)OC[C@H]3O[C@@H](n4cnc5c(N)ncnc54)[C@H](O)[C@@H]3O)c2cc1C [FAD] | a clear yellow color was indicative of proper folding and FAD binding | a clear yellow color was indicative of proper folding and FAD binding | – | – | – | – | – | – | – | – | – | –
2 | Sle_62070 (Streptomyces leeuwenhoekii) (protein, full-length, fused to N-terminal His-tagged phosphite dehydrogenase (PTDH) in pCRE2, fusion kept; expressed in E. coli NEB 10-beta; FAD flavoprotein) MTQGQTLSPEELAGLRERYRLERERRVRPDGTRQYLAADAEFGYYAEDPYAGEPPEREPLRDRVDVAVVGGGFGGILAGARLRRRGVRRVRVIEKGGDFGGTWYWNRYPGIHCDIESHVYLPLLDETGYVPEWKYAPGEEIRRHAVRIAEKFDLYADAQFSTAVTSLTWDEETRAWVVATDRGDEFRATYVITATGTLSELKLPGIPGIETFEGHTFHTSRWDYAYTGGTPDGGLTGLADKRVGVVGTGATGIQVIPKLAEDAGHLYVFQRTPSSVDVRANRRTTPQDVGADRDGWARERRDNFLRIVSGETAEEDLVADQWTASAGLLEKLVPSFRRQGDRTAFEAAYEVADAAKMNEIRARVERIVTDRDTAEKLKPWYRYACKRPTFSDTYLQAFNRDNVTLVDTADTHGIERMTERGVVVGGTEYALDCLIFATGFSVGVSGVHSGRLPVRGRGGVQLLDAWRKEGPRTLHGFTSNGFPNLIQMGTVQNASSVNYTHVLDEQAVHAAALVAAAEAKGAVIEPSREAEDAWIAVLAEDAPDHEWFHAECTPGYYNAEGRGRAKGPTAYPHGASAFHELLRRWREESMDGILRAGTPVRGPGGSTVS | – | – | 200 ± 10 | 4 ± 0.06 | 20000 | > 4 | 1300 | > 4 | 1300 | 3000 ± 300 | 4.1 | 1300
